Test results from patent US20120253009A1 (Amgen, published 2012).
Substitutions are numbered along the chain they refer to.

T1: human mpl receptor (human, UniProt P40238 26-635)
T1 sequence (looked up): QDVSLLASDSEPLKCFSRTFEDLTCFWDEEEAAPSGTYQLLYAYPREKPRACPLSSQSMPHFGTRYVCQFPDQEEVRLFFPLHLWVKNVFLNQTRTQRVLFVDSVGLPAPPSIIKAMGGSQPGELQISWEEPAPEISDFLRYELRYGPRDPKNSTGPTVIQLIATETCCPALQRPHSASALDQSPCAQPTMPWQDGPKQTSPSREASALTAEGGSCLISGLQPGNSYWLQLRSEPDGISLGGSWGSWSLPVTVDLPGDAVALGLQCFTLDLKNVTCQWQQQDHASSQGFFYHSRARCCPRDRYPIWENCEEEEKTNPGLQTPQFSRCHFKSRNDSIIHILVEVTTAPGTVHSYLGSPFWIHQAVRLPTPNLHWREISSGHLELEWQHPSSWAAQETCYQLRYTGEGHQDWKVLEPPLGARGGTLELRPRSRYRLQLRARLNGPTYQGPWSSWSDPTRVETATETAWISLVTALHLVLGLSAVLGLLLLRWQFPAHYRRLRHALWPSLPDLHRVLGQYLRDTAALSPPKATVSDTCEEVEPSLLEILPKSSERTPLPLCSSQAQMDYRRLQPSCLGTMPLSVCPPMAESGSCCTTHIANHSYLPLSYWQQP

B1: Fc-Loop (Sym) (SEQ ID NO: 35) (Fc fusion)
chain: MDKTHTCPPCPAPELLGGPSVFLFPPKPKDTLMISRTPEVTCVVVDVSHEDPEVKFNWYVDGVEVHNAKTKPREEQYNSTYRVVSVLTVLHQDWLNGKEYKCKVSNKALPAPIEKTISKAKGQPREPQVYTLPPSRDELGGQGCSSGGPTLREWQQCRRMQHSGGTKNQVSLTCLVKGFYPSDIAVEWESNGQPENNYKTTPPVLDSDGSFFLYSKLTVDKSRWQQGNVFSCSVMHEALHNHYTQKSLSLSPGK
B2: Fc-Loop (Sym) (SEQ ID NO: 6) (Fc fusion)
chain: B1 chain with M160A
B3: Fc-Loop (Sym) (SEQ ID NO: 5) (Fc fusion)
chain: B1 chain with R158V
B4: Fc-Loop (Asym) (SEQ ID NO: 35) (Fc fusion)
chain: MDKTHTCPPCPAPELLGGPSVFLFPPKPKDTLMISRTPEVTCVVVDVSHEDPEVKFNWYVDGVEVHNAKTKPREEQYNSTYRVVSVLTVLHQDWLNGKEYKCKVSNKALPAPIEKTISKAKGQPREPQVYTLPPSRDELGGGGQGCSSGGPTLREWQQCRRMQHSGGTKNQVSLTCLVKGFYPSDIAVEWESNGQPENNYKTTPPVLDSDGSFFLYSKLTVDKSRWQQGNVFSCSVMHEALHNHYTQKSLSLSPGK
B5: Fc-Loop (Asym) (SEQ ID NO: 5) (Fc fusion)
chain: B4 chain with R160V

biological target: T1, human mpl receptor; assay: cell-based or functional assay

EC50 on 32Dcl23/Mpl [nM]	Binder
0.015	B1
0.012	B2
0.01	B3
0.013	B4
0.006	B5
